# Test results taken from publication PMC7840605, “3-Hydroxyphthalic Anhydride-Modified Chicken Ovalbumin as a Potential Candidate Inhibits SARS-CoV-2 Infection by Disrupting the Interaction of Spike Protein With Host ACE2 Receptor” (Frontiers in Pharmacology, 2020).
# B1: chicken ovalbumin (natural protein)
# chain: MGSIGAASMEFCFDVFKELKVHHANENIFYCPIAIMSALAMVYLGAKDSTRTQINKVVRFDKLPGFGDSIEAQCGTSVNVHSSLRDILNQITKPNDVYSFSLASRLYAEERYPILPEYLQCVKELYRGGLEPINFQTAADQARELINSWVESQTNGIIRNVLQPSSVDSQTAMVLVNAIVFKGLWEKAFKDEDTQAMPFRVTEQESKPVQMMYQIGLFRVASMASEKMKILELPFASGTMSMLVLLPDEVSGLEQLESIINFEKLTEWTSSNVMEERKIKVYLPRMKMEEKYNLTSVLMAMGITDVFSSSANLSGISSAESLKISQAVHAAHAEINEAGREVVGSAEAGVDAASVSEEFRADHPFLFCIKHIATNAVLFFGRCVSP
# Target: SARS-CoV-2 spike (S) protein (SARS-CoV-2, UniProt P0DTC2)
# Experiment: cell-based or functional assay
binder,measurement,value
B1,IC50 against live SARS-CoV-2 in Vero E6 cells (CPE assay),> 50 µM
